The Tm is the temperature at which the thermal transition is half complete.

Consider one protein from FireProtDB (doi:10.1016/j.bbapap.2014.10.010).

The conditions of the data set: Homo sapiens; pH 7.4; Thermal; DSC; Hepes 20 mM; NaCl 200 mM; transition: 2; reversible: No; whole UniProt chain shown.

B1: Alanine--glyoxylate aminotransferase wild type, P21549 (protein)
chain: MASHKLLVTPPKALLKPLSIPNQLLLGPGPSNLPPRIMAAGGLQMIGSMSKDMYQIMDEIKEGIQYVFQTRNPLTLVISGSGHCALEAALVNVLEPGDSFLVGANGIWGQRAVDIGERIGARVHPMTKDPGGHYTLQEVEEGLAQHKPVLLFLTHGESSTGVLQPLDGFGELCHRYKCLLLVDSVASLGGTPLYMDRQGIDILYSGSQKALNAPPGTSLISFSDKAKKKMYSRKTKPFSFYLDIKWLANFWGCDDQPRMYHHTIPVISLYSLRESLALIAEQGLENSWRQHREAAAYLHGRLQALGLQLFVKDPALRLPTVTTVAVPAGYDWRDIVSYVIDHFDIEIMGGLGPSTGKVLRIGLLGCNATRENVDRVTEALRAALQHCPKKKL
In the case of B1, the midpoint of thermal melting (Tm) was 82.1 °C and the “unfolding enthalpy (calorimetric)” value stood at 547 kcal/mol.
